Test results taken from PMC6948721.

What was measured:
Conditions in all cases: 10 mM Na2HPO4 pH 7.3, 22 °C
[1] = substrate: CC(=CC=C(O)C(=O)O)C(=O)O; experiment: UV steady-state kinetics, enol-keto tautomerization; assay type: biochemical, Burkholderia lata
[2] = substrate: C=CC=C(O)C(=O)O; experiment: as above; assay type: biochemical, Burkholderia lata
[3] = substrate: O=C(O)C(O)=Cc1ccccc1; experiment: purified protein
[4] = substrate: O=C(O)C=CC=C(O)C(=O)O; experiment: purified protein

Row | Protein | Km [1] | kcat [1] | kcat/Km [1] | Km [2] | kcat [2] | kcat/Km [2] | Km [3] | kcat [3] | kcat/Km [3] | Km [4] | kcat [4] | kcat/Km [4]
1 | fused 4-OT (fused 4-oxalocrotonate tautomerase) (Burkholderia lata) (protein) PTLEVFLPAGHDDARKAELIARLTGATVDSIGAPIESVRVLLTELPATHIGLGGRSAADGAPPSLPVIVAILIAGRTDEQKRALIAALSETSASVLDAPLQATRVMIKDIPNTDFGIGGQTARALGR | 147 ± 9 µM | 72 ± 2 s⁻¹ | 490000 M⁻¹ s⁻¹ | 1330 ± 140 µM | 170 ± 12 s⁻¹ | 130000 M⁻¹ s⁻¹ |  |  |  |  |  | 
2 | unfused 4-OT (Burkholderia lata) (protein) chain 1: PTLEVFLPAGHDDARKAELIARLTGATVDSIGAPIESVRVLLTELPATHIGLGGRSAADGAPPSL chain 2: PVIVAILIAGRTDEQKRALIAALSETSASVLDAPLQATRVMIKDIPNTDFGIGGQTARALGR |  |  |  |  |  |  | 346 ± 28 µM | 19.3 ± 0.7 s⁻¹ | 56000 M⁻¹ s⁻¹ | 148 ± 18 µM | 105 ± 6 s⁻¹ | 710000 M⁻¹ s⁻¹
